Test results: the supplement of paper PMC9732359
± gives the uncertainty stated by the source.

Assay: protein stability index of a GFP-peptide fusion (yeast GPS) (PSI 1-4); higher = more stable; sorted into four equal gates, so the index is relative within each strain
Outline: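 The protein stability index of a peptide was calculated by multiplying its read frequency in each gate by that gate's number and adding the products. The peptides were tiled 17-residue stretches of yeast proteins, fused downstream of GFP on a Cherry-expressing plasmid and carried in yeast as a pooled library. Mid-log cultures in leucine-free medium were sorted into four equal gates by GFP/Cherry ratio, and each gate's plasmids were PCR-amplified and Illumina-sequenced.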

Sequence | protein stability index (doa10∆) | protein stability index (pdr5∆) | protein stability index (san1∆) | protein stability index (ubr1∆)
PSEFHCLQDALDAIDDF [SSN2] | 3.14 ± 0.1 | 3.16 ± 0.067 | 3.12 ± 0.05 | 3.09 ± 0.097
FAFWNLLVKFIKFFWNN [YLR018C/POM34] | 2.13 ± 0.23 | 2 ± 0.076 | 1.7 ± 0.13 | 1.36 ± 0.24
NEPTQKDEEETEYFENK [DSN1] | 3.58 ± 0.27 | 3.54 ± 0.23 | 2.71 ± 0.29 | 3.12 ± 0.23
LCKSATTKMWPTNCPLR [BRR2] | 2.82 ± 0.13 | 2.68 ± 0.12 | 2.58 ± 0.081 | 2.75 ± 0.094
QFNAQGVRDINCVNDVL [POP1] | 2.92 ± 0.17 | 2.92 ± 0.17 | 2.91 ± 0.11 | –
DVKFPSNTTTQIQFTPL [SMC3] | 2.59 ± 0.16 | 2.64 ± 0.15 | 2.98 ± 0.14 | 2.76 ± 0.052
QTKDSVKEIVLPLFYDL [IRR1] | 2.42 ± 0.06 | 2.4 ± 0.057 | 2.6 ± 0.05 | 2 ± 0.035
DLLKFENISLAEFILKN [BRR2] | 2.94 ± 0.082 | 3.3 ± 0.09 | 2.82 ± 0.062 | 2.83 ± 0.074
RDEMSKAELPQWYTLQS [MED8] | 2.92 ± 0.05 | 3.12 ± 0.043 | 2.87 ± 0.038 | 3.01 ± 0.043
NNTNNANSSITPAFGSN [YJL041W/NSP1] | 3.06 ± 0.11 | 3.06 ± 0.11 | 2.86 ± 0.11 | 3.06 ± 0.12
EELKNMFLYILKHLEEM [RRI2] | 2.25 ± 0.16 | 1.93 ± 0.11 | 1.32 ± 0.11 | 1.73 ± 0.097
VRHGRAGATTSRFIPLK [RPS15] | 2.62 ± 0.076 | 2.56 ± 0.062 | 2.89 ± 0.042 | 3.06 ± 0.064
AFGGSATTGGGLFGNKP [YGL172W/NUP49] | 3.26 ± 0.091 | 2.7 ± 0.26 | – | 3.16 ± 0.12
DILAKLFSLEKPNLNYF [SWI1] | 2.02 ± 0.056 | 1.96 ± 0.05 | 1.96 ± 0.063 | 2.08 ± 0.044
KILMYQYNIPPEREVLV [RRP6] | 1.78 ± 0.075 | 2.04 ± 0.077 | 1.77 ± 0.2 | 1.72 ± 0.087
EKAKSAGVQGSKVSKQQ [RPL24B] | 3.48 ± 0.14 | 3.4 ± 0.11 | 3.31 ± 0.14 | –
GIKLALDPNLITLALSS [SRB4] | 2.21 ± 0.052 | 2.91 ± 0.065 | 2.58 ± 0.055 | 2.63 ± 0.04
STTFADCPVVPADPDIL [RPC40] | 2.8 ± 0.071 | 2.87 ± 0.084 | 2.41 ± 0.11 | 2.43 ± 0.094
GFINQKNLKPQEQLKNV [YIL149C/MLP2] | 3.09 ± 0.11 | 2.84 ± 0.081 | 2.77 ± 0.062 | 2.9 ± 0.068
ETELFEPGVLNTGDGSI [ECM29] | 3.25 ± 0.15 | 3.2 ± 0.11 | 2.92 ± 0.12 | 3.07 ± 0.11
DAKSTPLRLRLYDNFVS [RPN9] | 3.3 ± 0.083 | 3.22 ± 0.088 | 3.21 ± 0.063 | 2.87 ± 0.082
EIEIEGVMSLLQKSSKS [YAR002W/NUP60] | 2.99 ± 0.11 | 3.05 ± 0.16 | 3.26 ± 0.09 | 3.25 ± 0.072
QLYHLEQQKEELTDKLS [SMC1] | 2.23 ± 0.16 | 3.11 ± 0.081 | 2.78 ± 0.15 | 3.14 ± 0.11
ASLNLLQLAPGAHLGRF [RPL4A] | 3.33 ± 0.16 | 3.03 ± 0.15 | 3.18 ± 0.092 | 3.26 ± 0.076
KNSFQQALQMKAMDIPI [SWP82] | 1.29 ± 0.035 | 1.55 ± 0.055 | 1.37 ± 0.064 | 1.59 ± 0.038
LQESINHVMYTEVSRKS [ECM29] | 2.47 ± 0.054 | 2.74 ± 0.062 | 2.47 ± 0.077 | 2.51 ± 0.035

Sequence | protein stability index (doa10∆) | protein stability index (pdr5∆) | protein stability index (san1∆) | protein stability index (ubr1∆)
ERVTALKNCKISNINIP [SMC1] | 3.25 ± 0.1 | 3.25 ± 0.12 | 3.1 ± 0.066 | 3.41 ± 0.11
ASIESADILCPLLESFI [IRR1] | 3.19 ± 0.14 | 2.48 ± 0.11 | – | 2.85 ± 0.13
YDKKKRVVVPQALRVLR [RPL16B] | 1.82 ± 0.043 | 2.09 ± 0.059 | 2.17 ± 0.084 | 1.82 ± 0.059
PADSTYGAYNTQIANAG [PRE4] | 1.8 ± 0.097 | 2.03 ± 0.067 | 2.08 ± 0.15 | 1.69 ± 0.049
KPGSIDAISQVINIAKA [FAS1] | 2.14 ± 0.052 | 2.87 ± 0.061 | 2.61 ± 0.069 | 2.95 ± 0.033
DAITVKDVKAWAGKRLW [COR1] | 3.01 ± 0.069 | 2.8 ± 0.067 | 2.87 ± 0.063 | 2.37 ± 0.044
DSTLILEQLAQHTTESD [RPB2] | 2.17 ± 0.05 | 2.67 ± 0.055 | 2.46 ± 0.072 | 2.43 ± 0.052
VDIYTHFTSPIRRYCDV [DIS3] | 1.61 ± 0.043 | 1.91 ± 0.055 | 1.94 ± 0.073 | 2.19 ± 0.04
TTRNGFMEAQGAGIQII [FAS2] | 2.81 ± 0.13 | 2.31 ± 0.12 | – | 3.26 ± 0.11
PSTRCKLKLLRMERIKD [RPT2] | 1.6 ± 0.045 | 1.68 ± 0.056 | 1.88 ± 0.089 | 1.76 ± 0.064
SKDIETLKKEWLKEYED [YIL149C/MLP2] | 3.34 ± 0.093 | 3.16 ± 0.085 | 3.26 ± 0.053 | 3.15 ± 0.051
VQASVTSSTHERKSKTY [RET1] | 2.6 ± 0.066 | 2.78 ± 0.079 | 2.55 ± 0.056 | 2.97 ± 0.061
IQTKEQVSINSNKILVY [YIL149C/MLP2] | 2.21 ± 0.076 | 2.75 ± 0.17 | 1.85 ± 0.21 | 2.96 ± 0.15
HGAASFLKERLMEASDA [RPB2] | 1.37 ± 0.15 | 1.48 ± 0.09 | 1.1 ± 0.18 | 1.03 ± 0.087
IDYKLRVLTQDGRVYIG [SMB1] | 2.49 ± 0.09 | 2.71 ± 0.076 | 1.67 ± 0.11 | 2.5 ± 0.048
FNPQDTEENIKGETNSE [RRP45] | 3.36 ± 0.26 | 3.19 ± 0.14 | 3.22 ± 0.19 | 3.12 ± 0.18
GGQHHHRINMDKYHPGY [RPL28] | 3.23 ± 0.1 | 3.36 ± 0.056 | 3.14 ± 0.1 | 2.99 ± 0.055
MHDSNLQNNSDSESDSD [SKP1] | 2.94 ± 0.11 | 3.18 ± 0.078 | 3.06 ± 0.056 | 3.02 ± 0.068
NSSSSTPNTNSNSTPNA [SWI1] | 2.96 ± 0.087 | 2.98 ± 0.09 | 3.12 ± 0.069 | 3.21 ± 0.059
SIQPIESNIKMTLEDNN [SSN2] | 3.12 ± 0.077 | 3.08 ± 0.075 | 2.81 ± 0.053 | 2.97 ± 0.043
PAFSFGAKPEEKKDDNS [YJL041W/NSP1] | 3.27 ± 0.16 | 3.26 ± 0.13 | 2.98 ± 0.24 | 3.29 ± 0.13
TLLYEQIIQRDKINKYS [SNF5] | 3.1 ± 0.08 | 3.35 ± 0.089 | 3.19 ± 0.059 | 2.27 ± 0.072
SGIRLIEPELFNGYNPE [FAS2] | 2.81 ± 0.067 | 2.89 ± 0.074 | 2.82 ± 0.073 | 2.83 ± 0.045
SVVHPGEMVGVLAAQSI [RPO21] | 1.29 ± 0.13 | 1.81 ± 0.089 | – | 1.26 ± 0.06
FSKQCLISNAIYGKKTM [ECM29] | 1.15 ± 0.098 | 1.95 ± 0.077 | 1.63 ± 0.14 | 1.82 ± 0.067
KRKCGHTNQLRPKKKLK [RPL40A] | 2.76 ± 0.038 | 2.84 ± 0.036 | 2.942 ± 0.028 | 2.994 ± 0.029
